experiment: soluble on expression in E. coli; label from the status in PepcDB or PDB records

Soluble on expression in E. coli, not soluble:
MGSDKIHHHHHHMRFGLDLGTTRTIAAAVDRGNYPIVTVEDSLGDTHDFIPSVVALKADRIVAGWDAIEVGQDHPSFVRSFKRLLSEPNVTEATPVYLGDHVHPLGAVLEAFAENVVTALRAFQTQLGDTSPIEVVIGVPANSHSAQRLLTMSAFSATGITVVGLVNEPSAAAFEYTHRHARTLNSKRQAIVVYDLGGGTFDSSLIRIDGTHHEVVSSIGISRLGGDDFDEILLQCALKAAGRQHDAFGKRAKNTLLDESRNAKEALVPQSRRLVLEIGDDDITVPVNKFYEAATPLVEKSLSIMEPLIGVDDLKDSDIAGIYLVGGGSSLPLVSRLLRERFGRRVHRSPFPSGSTAVGLAIAADPSSGFHLRDRVARGIGVFREHDSGRAVSFDPLIAPDTDSATVAKRCYKAVHNIGWFRFVEYSTVSEDGSPGDISLLSEIKIPFDSSITDVDATEISRFDGPEVEETITVNDNGVASISIKILGGVTVEHTI, MGSDKIHHHHHHMRFGYFDDVNREYVITTPQTPYPWINYLGTEDFFSIISHMAGGYCFYKDARLRRITRFRYNNVPTDAGGRYFYIREENGDFWTPTWMPVRKDLSFFEARHGLGYTKITGERNGLRATITYFVPRHFTGEVHYLVLENKAEKPRKIKLFSFIEFCLWNALDDMTNFQRNYSTGEVEIEGSVIYHKTEYRERRNHYAFYSVNQPIDGFDTDRESFIGLYSGFEAPQAVVEGKPRNSVASGWAPIASHYLEIELAPSEKKELIFILGYVENPEEEKWEKPGVINKKRAKEMIEKFKTGEDVEHALKELREYWDDLLGRIQVETHDEKLNRMVNIWNQYQCMVTFNISRSASYFESGISRGIGFRDSNQDILGFVHMIPEKARQRILDLASIQFEDGSTYHQFQPLTKKGNNEIGGGFNDDPLWLILSTSAYIKETGDWSILGEEVPFDNDPNKKASLFEHLKRSFYFTVNNLGPHGLPLIGRADWNDCLNLNCFSKNPDESFQTTVNALDGRVAESVFIAGLFVLAGKEFVEICKRRGLEEEAREAEKHVNKMIETTLKYGWDGEWFLRAYDAFGRKVGSKECEEGKIFIEPQGMCVMAGIGVDNGYAEKALDSVKKYLDTPYGLVLQQPAYSRYYIELGEISSYPPGYKENAGIFCHNNPWVAIAETVIGRGDRAFEIYRKITPAYLEDISEIHRTEPYVYAQMVAGKDAPRHGEAKNSWLTGTAAWSFVAITQHILGIRPTYDSLVVDPCIPKEWEGFRITRKFRGSIYDITVKNPSHVSKGVKEIIVDGKKIEGQVLPVFEDGKVHRVEVVMG, MGSDKIHHHHHHMRFYTKTHKYYCGIDLHARKKYVCILDSEGTVLVHREINCNPESFLRLVAPYREDLVVGVECMFAWYWLADLCRNEKIEFVLGHALYMKAVHGGKAKSDKIDAHKIAVLLRGGMFPLAYVYPPEMRATRDLLRRRNFFVRKRAELMAHIQNTVTQYNLAPLGIDLGVEENRHEVAQLFHDPEVRKIIEIDVAMIDAFDDVINVLEPDIEKTARQHNLHALKLLRSINGVGKVLGLVMLYEIHDINRFPTVQDFSSYCRLVKCAHESAGKKKGVGGSKIGNVHLKWAFSEAAVFFVRHNPQAKILMEKLVKIHGKGKAISILAHKLARAIFYMLKNNVPFDREKFLATA, MGSDKIHHHHHHMRHELDNPHAHATNNPCIRCLRHADRYARAVVSMLEVFASDKAEAKHNLFLKEGLCDIDKTLRSNDKRDTLRERPRNQTSSAMTLSPEKRARVMQGEILIDLNWLPDGVIGAKGSVFVEAEPPVVWRMLTDYDHLHETMPKVISSRLLETNNQTRIIAQSGKSGIFIFEKTVNFTLKVEEVFPEHLWFSQIGGDFQVYEGEWQLEAVEGKNGHATLLSYQAEIKPDFFAPQFVVSFVQSQDLPTILRAIRSYCEARAKG, MGSDKIHHHHHHMRIAYLSSAYLAPVEYYTKLLEYDKIYVEQHDHYIKQTYRNRCTIAGPDGELALSIPTVKPDTLKCPMKDIRISDHGNWRHLHWNAIESAYNSTPYFEYYKDDFRPFYEKKYEFLADFNEELCQLVCKLIDIQPCIERTSEYKTEFTTEETDFREIIHPKKDFQIADPEFVPHPYYQVFDSKLGFLPNLSIIDLLFNMGPESLLVLTSK, MGSDKIHHHHHHMRIDIDSFNVLQVLVEEGSFAKASERLHKAQSAVSYQVKKLEQHLGVTLFNRDKYRAELTPEGKVILIEGQRLLEQLANIEHLASRFSQGWEPKLELVIDGSLPMEPIMTALKRMSEHNVPTKIQLNMEFLGGVQHRFERDKADLMLVKDYRSGPYYDAKPLPSITSVLVVANSHPLALSKAVSLSQLQQHVELTIEDSSPSRLGRDELQFGGDKVFYLSGFIMKKNALLKGLGFGWMPDFLIGEELAAGELVMVDFMGGSRFNYTPQLVSTLARPLGRAGQLFTELILQEFDLFHQDLADGSSGSGLG, MGSDKIHHHHHHMRILILGAGKMGSFFTDILSFQHETAVFDVNPHQLRFVYNTYRFTTLEEIKEFEPELVINAATVKYTLDAFRKILPVLPKDCILSDIASVKTGLKKFYEESGFRYVSTHPMFGPTFASLSNLSSESAIIISESDHLGKVFFKDLYNSLNLNIFEYTFDEHDETVAYSLSIPFVSTFVFAAVMKHQEAPGTTFKKHMAIAKGLLSEDDYLLQEILFNPRTPSQVENIRTELKQLLEIITNKDAEGMKKYLTKIREKIK, MGSDKIHHHHHHMRISLSTGTLFTFPLGKVMRIAREAGFDGVELIINQDFQKVNCRKLIEELAEILPINSIHAPFMPLDGWGGPIDSLERCVELAAGAGIPLVNFHPPSWMGFEIGFWRWLYRVMDFQKEVGRETVIVTLENMPWVGTRFRVNPHILSNTEKLIEFIQERNLYMTFDTTHMGSGKANFINDFYHCYNSGRIRNIHFSDYGHGREHLIPGHGILPLTRFLNHLRSTDYADTLTLELSPEEFPRDERIIVESLREILQYLRRETSPA, MGSDKIHHHHHHMRKDDVVIVTCAITGAIHTPSMSPYLPVTPDQIVEEAVKAAEAGAGMVHIHARDPKDGRPTTDVEVFRYICREIKKQSDVVINVTTGGGGTLGIPVEERAKVVPALKPEIATFNMGSMNFAIHPLLKKYKEFKYDWEPEYLEMTRDIVFRNTFKDLEALSRIFKENDTKPELECYDIGQIYNTAFMFHEGYLEPPLRLQFIHGILGGIGTAVEDVLFMKQTADRLIGRENYTWSLVGAGRFQMPLGTLAVIMGGDVRVGLEDSLYIERGKLAKSNAEQVEKMVRIVKELGKRPATPDEVREILGLKGKERVNF, MGSDKIHHHHHHMRLDSISIANFRNHTLLEFEPGHSITNIYGRNGSGKTSILEAIHYCALTRGFSGNNDREYLKFGEELFTIRSSFTSGQGIATKVSITYSPKREKRILVNEQELQTFSSHIGTIPCVTFTPREMVIINGAPAERRRFIDTAICQYDRKYLSDLLLYRRILQQRNALLSSEQDPRVIDSALDVLTDQLVAIATEIVLVRKRFIEHFTSMLGGVYQWIPEGAEPSILYQSSLGHHENLYEKDKIQQVFRERFETLKQQELQRRQTLAGPHRDDLQFYLNKREIRKYASQGQQRAFLVAMKMTLQGYLYEASGEIPITLLDDLFSELDEVVSGTMVETLATKGQVIITSTEKKKGKGISFFSVDDYKSSKEP, MGSDKIHHHHHHMRLLFSTMFLYEYSTDMIAKAVNLAGYDGVEFWPETPYFWVDRAMEKLECLRDFDNAIHVPVLDLNPVSVNPDICNLTLRETLYSIALAAKIKAKPVTVHAGRRSAAREPVWADYLSLSRYLRISSRYAKIKGVTVGLENSENSINNLCKTADEVRKFAEEYDVMVTLDIKHALLNGGVEEFLELFGRICNVHVSYYDEKMRHVQPSRGKEVGDALKELAELGYDGPLTVELDDLGIGNLDFSKKVEILRKERRFVEKFFKR, MGSDKIHHHHHHMRNAHDILDNIVYDFANATGLGSVAVDLNGKEISPWYNFTSFCQQVRQIAAYHPYCQQCDRCGGFESTKAKQIQCYRCHAGLVDFSIPIFINGNLTGFVSCGQARVAENLPLPKIVENDKNLPTESKLIELYHEVPELSLMKIKSAAQLLNLIIENYLSKEYNLRIVKNVSPVKNQKLETLGRHQATMEMILNHINQNFSDNLNLEQMASKANLSMFYFSRTFKELTGTGFTAYLINKRMTEAHCLLEQTNWSIEKIARSVGYNDVHYFSRLFKKTFNRSPSEFRNHSSGFSM
